These results are taken from paper PMC11370418.

Common to all, as to experiment: …
The target of assay [1] is DDIT3-GS-DDIT3 synthetic AD (human).
For assay [2], the target named is MYB-GS-MYB synthetic AD (human).
Assay [3] concerns the target monomeric enhanced green fluorescent protein (meGFP).

Substance P300 KIX domain (domain or fragment) registered a fold change of Kd against single-site DDIT3 in assay [1] of under 1.1 fold. This substance also yielded a fold change of Kd against single-site MYB in assay [2] of under 1.1 fold.

Turning to “TFIID domain TAF12 (from UniProt Q16514 1-161) (natural protein)”, the Kd – broadly, the constant that tells how readily two partners part at equilibrium – in assay [3] is over 100 µM.
